Results as given in article PMC6092318, “Keap1–MCM3 interaction is a potential coordinator of molecular machineries of antioxidant response and genomic DNA replication in metazoa” (Scientific Reports, 2018).

B1: FLAG-MCM3 (mouse, wild type, baculovirus) (natural protein, UniProt P25206 1-812, looked up)
chain: MAGTVVLDDVELREAQRDYLDFLDDEEDQGIYQNKVRELISDNQYRLIVSVNDLRRKNEKRANRLLNNAFEELVAFQRALKDFVASIDATYAKQYEEFYIGLEGSFGSKHVSPRTLTSCFLSCVVCVEGIVTKCSLVRPKVVRSVHYCPATKKTIERRYSDLTTLVAFPSSSVYPTKDEENNPLETEYGLSVYKDHQTITIQEMPEKAPAGQLPRSVDVILDDDLVDKVKPGDRIQVVGTYRCLPGKKGCYTSGTFRTVLIACNVKQMSKDIQPAFSADDIAKIKKFSKTRSKDVFEQLARSLAPSIHGHDYVKKAILCLLLGGVERELENGSHIRGDINILLIGDPSVAKSQLLRYVLCTAPRAIPTTGRGSSGVGLTAAVTTDQETGERRLEAGAMVLADRGVVCIDEFDKMSDMDRTAIHEVMEQGRVTIAKAGIHARLNARCSVLAAANPVYGRYDQYKTPMENIGLQDSLLSRFDLLFIMLDQMDPEQDREISDHVLRMHQYRAPGEQDGDALPLGSSVDILATDDPDFTQDDQQDTRIYEKHDSLLHGTKKKKEKMVSAAFMKKYIHVAKIIKPTLTQESAAYIAEEYSRLRSQDSMSSDTARTSPVTARTLETLIRLATAHAKARMSKTVDLQDAEEAVELVQYAYFKKVLEKEKKRKKASEDESDLEDEEEKSQEDTEQKRKRRKTHAKDGESYDPYDFSEAETQMPQVHTPKTDDSQEKTDDSQETQDSQKVELSEPRLKAFKAALLEVFQEAHEQSVGMLHLTESINRNREEPFSSEEIQACLSRMQDDNQVMVSEGIVFLI
notes: MCM3, mouse; cDNA cloned into pFastBac1; also called WT MCM3; source: Sf9, baculovirus infected, in extract; not shown: FLAG, N-terminal, kept
B2: HA-MCM-BP (mouse, baculovirus) (natural protein, UniProt Q8R3C0 1-642, looked up)
chain: MPCGEDWLSHPLGIVQGFFAQNGVNPDWEKKVIEYFKEKLKENNAPKWVPSLNEVPLHYLKPNSFVKFRCMIQDMFDPEFYMGIYETVNQNTKARVLHFGKYRDVAECGPQQELDLSSPRSTTSERQTFYCVPVPGESSWVKEAYVNANQARVSPSTSYTPSRHKRSYEDDEDMDLQPSKQKEQHPGSRQAGGLGGLHWCGEPKRLETEASSGQQLNTLNLSSPFDLNFPLPGEKGPACLVKVYEDWDCFKVNDVLELYGVLSVDPVLSVLNSEERDASALLDPMECTDMAEEQRVHSPPASLVPRIHVILAQKLQHINPLLPTCLNKEESRSCQFVSNFMSELSPVRAELLGFLTHALLGDSLAAEYLILHLISTVYTRRDVLPLGKFTVNLSGCPQNSTFTEHLYRIIQHLVPASFRLQMTIENMNQLKLIPHKDYTANRLVSGLLQLPNNTSLVIDETLLEQGQLDTPGVHNVTALSNLITWQKVDYDFSYHQMEFPCNINVLITSEGRSLLPADCQIHLQPQLIPPNMEEYMNGLLSAVLPSVLNKFRIYLTLLRFLDYNLSDDITKAVEDDFVEMRKDDPQSITADDLHQLLVVARFLSLSVGQTTLSRERWLRAKQLELSRKARLQQQKSVNGNEL
notes: MCM-BP, mouse; cDNA cloned into pFastBac1; source: Sf9, baculovirus infected, in extract

Columns and labels:
[1] = biological target: FLAG-MCM3 (mouse MCM3 expressed in CHO-EBNALT85 cells) (mouse) (UniProt P25206); test: co-IP; anti-FLAG M2 beads on whole cell, nuclear and cytoplasmic extracts of FLAG-MCM3 expressing CHOEBNALT85 cells, 150 mM KCl, Western blot
[2] = biological target: T1, strep-Keap1 (mouse, wild type, baculovirus) (mouse, UniProt Q9Z2X8 1-624); test: SEC; Superose 6 10/300 GL of the strep-Keap1 - FLAG-MCM3 tandem purified complex, 100 mM KCl buffer; densitometry of the Coomassie stained gel; conditions: partners not purified
T1 construct: Keap1, mouse; cDNA cloned into pFastBac1; also called strep tagged Keap1; strp-Keap1; source: Sf9, baculovirus infected, in extract; not shown: Strep-tag II, N-terminal, kept

[3] = biological target: B1; test: as above; conditions: partners not purified

T1 sequence (Q9Z2X8 whole entry): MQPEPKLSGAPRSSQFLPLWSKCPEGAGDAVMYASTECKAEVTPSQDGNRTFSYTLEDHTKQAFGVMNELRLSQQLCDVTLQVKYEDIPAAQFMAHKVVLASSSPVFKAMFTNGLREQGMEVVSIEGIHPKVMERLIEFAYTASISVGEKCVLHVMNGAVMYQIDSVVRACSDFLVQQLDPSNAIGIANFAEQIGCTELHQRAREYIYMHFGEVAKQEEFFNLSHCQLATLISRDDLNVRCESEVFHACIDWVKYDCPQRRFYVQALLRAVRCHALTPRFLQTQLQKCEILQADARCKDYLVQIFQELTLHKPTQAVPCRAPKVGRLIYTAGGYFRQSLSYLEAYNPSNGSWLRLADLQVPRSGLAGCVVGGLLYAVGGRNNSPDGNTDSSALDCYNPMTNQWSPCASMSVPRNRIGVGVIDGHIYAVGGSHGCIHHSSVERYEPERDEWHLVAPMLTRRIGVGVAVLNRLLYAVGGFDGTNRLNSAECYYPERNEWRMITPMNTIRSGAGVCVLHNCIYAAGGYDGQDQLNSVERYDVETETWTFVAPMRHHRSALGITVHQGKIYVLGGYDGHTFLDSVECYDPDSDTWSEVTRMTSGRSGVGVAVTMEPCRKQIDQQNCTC

## Keap1 (endogenous, CHO cells) (natural protein)
[1]
  percent of soluble MCM3 and Keap1 pulled down together: 5 to 10%

## B1
[2]
  stoichiometry N: ~1

## B2
[3]
  stoichiometry N: ~1
